Columns and labels:
Format in all cases: biochemical
[1] = biological target: ABL (Homo sapiens, UniProt P00519); assay: TR-FRET kinase assay, ABL; settings: Kinase Concentration 0.25 nM; 50 nM ULight-labeled substrate, 200 micromolar ATP, 2 hours
Protocol: (§1) TR-FRET kinase assays are performed under standardized conditions: various individual kinases are incubated with 50 nM of kinase substrate BRB1 labeled with the TR-FRET acceptor dye ULight (PerkinElmer) and 200 micromolar ATP in 10 μL of kinase assay buffer (50 mM HEPES pH7.5, 10 mM MgCl2, 3 mM MnCl2, 1 mM EGTA, 2 mM DTT and 0.01% Tween-20) for 2 hours at room temperature. Reactions are stopped with EDTA, and anti-phospho-tyrosine antibodies (clone PT66) labeled with the TR-FRET europium chelate donor dye are added to a final concentration of 2 nM in a final volume of 20 μL. The TR-FRET signal emitted at 665 nm is read one hour after the addition of antibodies using a TR-FRET plate reader such as the Envision® Multilabel Plate reader (PerkinElmer). The emitted signal at 665 nm is proportional to the extent of peptide phosphorylation, Control reactions indicative of background are performed excluding ATP from the reaction.
(§2) Assay conditions are identical to those used described for FIG. 1.

[2] = biological target: T1, MUSK (Homo sapiens, UniProt O15146); assay: TR-FRET kinase assay, MUSK; settings: Kinase Concentration 1 nM; 50 nM ULight-labeled substrate, 200 micromolar ATP, 2 hours
T1 sequence (O15146 24-869): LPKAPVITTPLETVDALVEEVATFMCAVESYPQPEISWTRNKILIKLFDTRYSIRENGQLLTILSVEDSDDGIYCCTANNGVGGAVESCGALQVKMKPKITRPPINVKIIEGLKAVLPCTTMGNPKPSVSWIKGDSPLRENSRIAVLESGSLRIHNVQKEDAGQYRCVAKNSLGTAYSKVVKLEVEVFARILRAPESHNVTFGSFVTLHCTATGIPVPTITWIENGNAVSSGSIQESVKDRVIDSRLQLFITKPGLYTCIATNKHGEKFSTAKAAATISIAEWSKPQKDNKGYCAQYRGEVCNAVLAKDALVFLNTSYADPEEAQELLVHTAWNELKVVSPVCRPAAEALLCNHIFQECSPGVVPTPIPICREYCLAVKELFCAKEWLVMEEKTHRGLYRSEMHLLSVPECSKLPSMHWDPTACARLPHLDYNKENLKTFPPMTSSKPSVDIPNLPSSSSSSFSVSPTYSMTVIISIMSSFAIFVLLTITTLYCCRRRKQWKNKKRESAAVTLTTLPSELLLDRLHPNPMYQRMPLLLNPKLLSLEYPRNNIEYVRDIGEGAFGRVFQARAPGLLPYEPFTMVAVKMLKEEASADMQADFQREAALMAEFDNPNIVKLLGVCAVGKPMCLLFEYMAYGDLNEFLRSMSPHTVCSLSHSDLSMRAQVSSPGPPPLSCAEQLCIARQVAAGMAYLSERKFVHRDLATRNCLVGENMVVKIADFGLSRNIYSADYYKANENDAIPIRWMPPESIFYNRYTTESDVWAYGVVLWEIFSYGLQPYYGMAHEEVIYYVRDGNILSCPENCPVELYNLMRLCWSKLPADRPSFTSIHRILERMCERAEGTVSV
Protocol: as §1, §2

[3] = biological target: LYNb (Homo sapiens, UniProt P07948); assay: TR-FRET kinase assay, LYNb; settings: Kinase Concentration 1 nM; 50 nM ULight-labeled substrate, 200 micromolar ATP, 2 hours
Protocol: as §1, §2

[4] = biological target: JAK2 (Homo sapiens, UniProt O60674); assay: TR-FRET kinase assay, JAK2; settings: Kinase Concentration 1 nM; 50 nM ULight-labeled substrate, 200 micromolar ATP, 2 hours
Protocol: as §1, §2

[5] = biological target: EphA5 (Homo sapiens, UniProt P54756); assay: TR-FRET kinase assay, EphA5; settings: Kinase Concentration 1 nM; 50 nM ULight-labeled substrate, 200 micromolar ATP, 2 hours
Protocol: as §1, §2

[6] = biological target: CSK (Homo sapiens, UniProt P41240); assay: TR-FRET kinase assay, CSK; settings: Kinase Concentration 20 nM; 50 nM ULight-labeled substrate, 200 micromolar ATP, 2 hours
Protocol: as §1, §2

[7] = biological target: MET (Homo sapiens, UniProt P08581); assay: TR-FRET kinase assay, MET; settings: Kinase Concentration 0.5 nM; 50 nM ULight-labeled substrate, 200 micromolar ATP, 2 hours
Protocol: as §1, §2

[8] = biological target: ACK (Homo sapiens, UniProt Q07912); assay: TR-FRET kinase assay, ACK; settings: Kinase Concentration 20 nM; 50 nM ULight-labeled substrate, 200 micromolar ATP, 2 hours
Protocol: as §1, §2

[9] = biological target: EphA4 (Homo sapiens, UniProt P54764); assay: TR-FRET kinase assay, EphA4; settings: Kinase Concentration 0.5 nM; 50 nM ULight-labeled substrate, 200 micromolar ATP, 2 hours
Protocol: as §1, §2

[10] = biological target: HCK (Homo sapiens, UniProt P08631); assay: TR-FRET kinase assay, HCK; settings: Kinase Concentration 0.25 nM; 50 nM ULight-labeled substrate, 200 micromolar ATP, 2 hours
Protocol: as §1, §2

[11] = biological target: T2, EphA3 (Homo sapiens, UniProt P29320); assay: TR-FRET kinase assay, EphA3; settings: Kinase Concentration 0.5 nM; 50 nM ULight-labeled substrate, 200 micromolar ATP, 2 hours
T2 sequence (P29320 21-983): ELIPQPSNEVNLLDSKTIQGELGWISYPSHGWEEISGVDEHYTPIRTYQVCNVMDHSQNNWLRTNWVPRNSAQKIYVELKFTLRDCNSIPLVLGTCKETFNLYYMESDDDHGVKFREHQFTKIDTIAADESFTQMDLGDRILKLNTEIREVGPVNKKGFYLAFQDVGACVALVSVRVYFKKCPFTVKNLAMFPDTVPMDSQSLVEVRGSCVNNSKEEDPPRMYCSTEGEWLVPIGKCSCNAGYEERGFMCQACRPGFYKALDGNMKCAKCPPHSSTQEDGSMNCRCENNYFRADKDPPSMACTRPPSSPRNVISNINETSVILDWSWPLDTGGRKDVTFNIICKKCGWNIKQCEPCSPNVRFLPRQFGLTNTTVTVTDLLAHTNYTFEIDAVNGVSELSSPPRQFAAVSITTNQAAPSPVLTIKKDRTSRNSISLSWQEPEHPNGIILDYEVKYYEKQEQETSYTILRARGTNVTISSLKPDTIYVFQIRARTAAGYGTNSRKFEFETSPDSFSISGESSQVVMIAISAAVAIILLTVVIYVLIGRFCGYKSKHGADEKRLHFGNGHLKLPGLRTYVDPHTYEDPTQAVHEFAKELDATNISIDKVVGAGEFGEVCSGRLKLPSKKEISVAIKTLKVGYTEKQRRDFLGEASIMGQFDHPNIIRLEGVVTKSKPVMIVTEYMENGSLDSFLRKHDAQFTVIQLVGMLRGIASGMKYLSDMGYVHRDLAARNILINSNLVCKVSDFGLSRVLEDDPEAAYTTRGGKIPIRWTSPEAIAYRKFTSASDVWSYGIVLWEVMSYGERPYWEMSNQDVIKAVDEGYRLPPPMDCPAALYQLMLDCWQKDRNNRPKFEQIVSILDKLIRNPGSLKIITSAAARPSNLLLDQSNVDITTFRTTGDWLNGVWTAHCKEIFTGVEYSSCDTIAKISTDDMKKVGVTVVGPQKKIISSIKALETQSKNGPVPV
Protocol: as §1, §2

[12] = biological target: PDGFRβ (Homo sapiens, UniProt P09619); assay: TR-FRET kinase assay, PDGFRβ; settings: Kinase Concentration 0.25 nM; 50 nM ULight-labeled substrate, 200 micromolar ATP, 2 hours
Protocol: as §1, §2

LYNb, sequence (P07948 1-491 isoform P07948-2, species assumed): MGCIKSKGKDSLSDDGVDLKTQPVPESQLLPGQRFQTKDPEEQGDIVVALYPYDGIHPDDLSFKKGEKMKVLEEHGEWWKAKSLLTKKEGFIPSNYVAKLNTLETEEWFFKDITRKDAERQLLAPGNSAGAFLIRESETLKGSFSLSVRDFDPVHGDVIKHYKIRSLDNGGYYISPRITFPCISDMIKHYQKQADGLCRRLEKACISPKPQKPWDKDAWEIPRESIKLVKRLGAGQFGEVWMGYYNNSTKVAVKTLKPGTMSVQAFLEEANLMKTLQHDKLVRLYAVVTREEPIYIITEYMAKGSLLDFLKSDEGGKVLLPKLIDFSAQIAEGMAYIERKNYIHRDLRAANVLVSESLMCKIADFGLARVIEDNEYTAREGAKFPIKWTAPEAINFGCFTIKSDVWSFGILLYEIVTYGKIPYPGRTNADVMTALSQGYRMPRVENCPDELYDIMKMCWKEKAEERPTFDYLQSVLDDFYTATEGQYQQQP
ACK, sequence (Q07912 whole entry): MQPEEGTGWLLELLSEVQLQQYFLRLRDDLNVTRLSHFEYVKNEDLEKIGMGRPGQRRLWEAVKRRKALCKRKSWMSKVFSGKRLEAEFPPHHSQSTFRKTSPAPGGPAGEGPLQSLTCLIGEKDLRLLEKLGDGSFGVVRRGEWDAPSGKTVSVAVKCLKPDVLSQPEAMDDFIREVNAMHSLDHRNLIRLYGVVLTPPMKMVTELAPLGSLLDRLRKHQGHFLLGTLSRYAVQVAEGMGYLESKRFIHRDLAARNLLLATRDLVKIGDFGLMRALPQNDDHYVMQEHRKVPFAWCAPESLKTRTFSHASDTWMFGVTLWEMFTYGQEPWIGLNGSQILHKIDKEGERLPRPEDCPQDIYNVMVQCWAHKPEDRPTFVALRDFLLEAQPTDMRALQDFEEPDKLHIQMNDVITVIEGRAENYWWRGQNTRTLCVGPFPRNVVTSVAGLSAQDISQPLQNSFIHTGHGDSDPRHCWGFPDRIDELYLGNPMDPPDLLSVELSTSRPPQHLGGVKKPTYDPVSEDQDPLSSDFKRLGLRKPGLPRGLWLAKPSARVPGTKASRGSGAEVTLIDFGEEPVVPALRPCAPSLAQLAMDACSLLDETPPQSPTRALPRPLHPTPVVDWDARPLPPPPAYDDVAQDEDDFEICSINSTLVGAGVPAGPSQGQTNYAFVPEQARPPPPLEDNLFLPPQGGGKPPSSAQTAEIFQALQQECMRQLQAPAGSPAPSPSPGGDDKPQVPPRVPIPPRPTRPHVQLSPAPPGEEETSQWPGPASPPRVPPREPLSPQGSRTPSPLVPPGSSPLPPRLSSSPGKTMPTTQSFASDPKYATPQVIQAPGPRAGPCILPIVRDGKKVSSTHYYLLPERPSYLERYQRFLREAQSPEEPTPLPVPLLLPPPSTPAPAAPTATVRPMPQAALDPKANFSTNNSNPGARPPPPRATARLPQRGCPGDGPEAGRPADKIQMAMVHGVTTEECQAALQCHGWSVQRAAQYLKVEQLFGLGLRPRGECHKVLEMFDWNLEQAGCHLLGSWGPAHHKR
EphA4, sequence (P54764 20-986, species assumed): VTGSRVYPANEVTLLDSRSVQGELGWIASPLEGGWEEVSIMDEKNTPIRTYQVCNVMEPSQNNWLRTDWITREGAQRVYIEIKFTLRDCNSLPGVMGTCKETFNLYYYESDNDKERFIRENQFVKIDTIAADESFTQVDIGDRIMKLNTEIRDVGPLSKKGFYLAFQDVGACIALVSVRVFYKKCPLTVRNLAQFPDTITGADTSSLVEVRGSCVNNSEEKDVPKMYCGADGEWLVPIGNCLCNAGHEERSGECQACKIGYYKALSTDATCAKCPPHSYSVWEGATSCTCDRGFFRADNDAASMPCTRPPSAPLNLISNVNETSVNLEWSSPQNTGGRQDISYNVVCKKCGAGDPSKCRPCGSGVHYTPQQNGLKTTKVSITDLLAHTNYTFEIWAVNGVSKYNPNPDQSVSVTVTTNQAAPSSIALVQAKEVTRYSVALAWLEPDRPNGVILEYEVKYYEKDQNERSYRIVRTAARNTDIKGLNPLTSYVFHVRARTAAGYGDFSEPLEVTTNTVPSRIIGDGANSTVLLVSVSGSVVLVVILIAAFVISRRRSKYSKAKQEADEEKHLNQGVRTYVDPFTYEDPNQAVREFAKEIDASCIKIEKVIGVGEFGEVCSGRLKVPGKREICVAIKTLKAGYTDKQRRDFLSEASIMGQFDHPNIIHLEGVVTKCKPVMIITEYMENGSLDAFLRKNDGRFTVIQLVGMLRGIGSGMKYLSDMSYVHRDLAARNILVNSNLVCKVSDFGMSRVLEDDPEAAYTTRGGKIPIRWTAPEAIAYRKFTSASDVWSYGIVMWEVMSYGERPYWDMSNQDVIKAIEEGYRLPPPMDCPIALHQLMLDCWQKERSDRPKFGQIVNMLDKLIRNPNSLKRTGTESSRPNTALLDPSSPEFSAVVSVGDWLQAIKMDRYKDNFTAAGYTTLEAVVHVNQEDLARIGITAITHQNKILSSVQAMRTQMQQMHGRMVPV
HCK, sequence (P08631 whole entry, species assumed): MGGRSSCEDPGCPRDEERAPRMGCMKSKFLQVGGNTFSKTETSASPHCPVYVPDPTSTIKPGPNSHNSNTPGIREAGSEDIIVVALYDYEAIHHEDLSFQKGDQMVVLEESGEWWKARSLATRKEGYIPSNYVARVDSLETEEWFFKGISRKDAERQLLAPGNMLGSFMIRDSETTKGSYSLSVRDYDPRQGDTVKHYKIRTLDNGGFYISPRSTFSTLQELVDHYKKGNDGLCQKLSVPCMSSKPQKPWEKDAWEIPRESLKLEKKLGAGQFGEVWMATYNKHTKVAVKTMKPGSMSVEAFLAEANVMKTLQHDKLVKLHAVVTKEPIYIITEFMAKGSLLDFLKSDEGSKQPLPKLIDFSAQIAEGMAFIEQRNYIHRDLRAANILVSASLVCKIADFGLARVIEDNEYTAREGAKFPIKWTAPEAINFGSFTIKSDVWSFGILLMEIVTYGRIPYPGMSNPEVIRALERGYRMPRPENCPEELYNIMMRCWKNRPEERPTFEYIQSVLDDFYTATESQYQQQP
EphA5, sequence (P54756 25-1037, species assumed): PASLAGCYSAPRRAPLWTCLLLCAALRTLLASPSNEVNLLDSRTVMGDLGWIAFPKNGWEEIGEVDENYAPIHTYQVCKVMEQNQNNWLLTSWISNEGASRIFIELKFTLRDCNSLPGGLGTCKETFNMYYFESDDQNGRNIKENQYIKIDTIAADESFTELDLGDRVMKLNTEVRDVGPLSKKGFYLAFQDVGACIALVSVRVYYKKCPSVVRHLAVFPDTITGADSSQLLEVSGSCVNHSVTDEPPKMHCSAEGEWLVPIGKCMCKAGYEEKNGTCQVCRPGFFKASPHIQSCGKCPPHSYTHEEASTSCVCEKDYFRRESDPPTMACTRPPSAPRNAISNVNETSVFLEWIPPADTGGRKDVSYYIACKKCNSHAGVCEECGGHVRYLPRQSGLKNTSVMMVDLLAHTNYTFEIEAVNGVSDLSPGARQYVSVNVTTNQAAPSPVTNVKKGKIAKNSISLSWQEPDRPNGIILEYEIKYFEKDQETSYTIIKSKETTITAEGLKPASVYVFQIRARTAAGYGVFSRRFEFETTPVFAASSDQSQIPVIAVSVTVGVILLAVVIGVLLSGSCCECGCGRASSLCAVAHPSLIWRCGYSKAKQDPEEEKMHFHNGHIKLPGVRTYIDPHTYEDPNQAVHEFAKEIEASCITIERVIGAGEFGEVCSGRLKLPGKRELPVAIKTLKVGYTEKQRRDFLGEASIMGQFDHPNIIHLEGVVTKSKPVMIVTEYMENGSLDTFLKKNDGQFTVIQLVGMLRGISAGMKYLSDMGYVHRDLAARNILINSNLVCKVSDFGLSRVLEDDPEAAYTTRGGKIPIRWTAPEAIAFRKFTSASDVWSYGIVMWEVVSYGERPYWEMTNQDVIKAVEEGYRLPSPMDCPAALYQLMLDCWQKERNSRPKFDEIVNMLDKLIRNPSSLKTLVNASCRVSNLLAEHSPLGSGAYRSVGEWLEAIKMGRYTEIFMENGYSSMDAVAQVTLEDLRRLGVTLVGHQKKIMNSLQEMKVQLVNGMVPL
CSK, sequence (P41240 whole entry, species assumed): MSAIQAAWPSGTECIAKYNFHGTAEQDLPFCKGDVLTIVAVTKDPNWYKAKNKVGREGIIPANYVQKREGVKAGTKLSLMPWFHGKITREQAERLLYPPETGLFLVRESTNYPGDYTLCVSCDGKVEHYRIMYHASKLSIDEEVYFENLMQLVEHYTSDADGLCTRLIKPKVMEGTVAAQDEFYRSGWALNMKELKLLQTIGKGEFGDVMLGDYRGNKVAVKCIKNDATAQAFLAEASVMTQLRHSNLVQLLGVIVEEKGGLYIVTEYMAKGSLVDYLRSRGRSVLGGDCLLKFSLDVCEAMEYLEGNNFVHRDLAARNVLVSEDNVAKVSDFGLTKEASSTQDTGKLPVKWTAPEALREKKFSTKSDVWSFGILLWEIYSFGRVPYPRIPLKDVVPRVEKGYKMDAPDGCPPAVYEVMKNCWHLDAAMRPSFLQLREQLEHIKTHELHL

With “C AYE AYE AYE K EYA EYA EYA K AYA EYE R (CAYEAYEAYEKEYAEYAEYAKAYAEYER; tyrosine kinase substrate peptide) [BRB1]” the “Signal to Noise ratio with BRB1 Peptide” value [1] was 4.1, the “Signal to Noise ratio with BRB1 Peptide” value [2] was 3.1 and the “Signal to Noise ratio with BRB1 Peptide” value [3] was 33.1. For the same sequence, the “Signal to Noise ratio with BRB1 Peptide” value [4] was 35.5, the “Signal to Noise ratio with BRB1 Peptide” value [5] was 35.5 and the “Signal to Noise ratio with BRB1 Peptide” value [6] was 27.2. For the same sequence, the “Signal to Noise ratio with BRB1 Peptide” value [7] was 24.2, the “Signal to Noise ratio with BRB1 Peptide” value [8] was 17.3 and the “Signal to Noise ratio with BRB1 Peptide” value [9] was 31.5. The “Signal to Noise ratio with BRB1 Peptide” value [10] was 29.7, the “Signal to Noise ratio with BRB1 Peptide” value [11] was 22.4 and the “Signal to Noise ratio with BRB1 Peptide” value [12] was 4.7.

Source: patent US8242083B2, “Kinase substrates” (PerkinElmer Health Sciences, Inc., priority 2008, dated 2012)
